Laboratory results: patent publication US20140030274A1

Legend:
[1] = biological target: Aβ(M1-40) (human); experiment: cell-based or functional assay
[2] = biological target: Aβ(M1-42) (human); experiment: cell-based or functional assay
Chain of Aβ(M1-42) (human) (peptide, as listed by the source): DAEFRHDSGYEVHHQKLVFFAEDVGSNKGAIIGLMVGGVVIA

Chain of Aβ(M1-40) (human) (peptide, as listed by the source): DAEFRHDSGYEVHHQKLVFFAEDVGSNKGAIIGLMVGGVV

**Q.** How did the molar equivalents needed for the same inhibition of Aβ40 aggregation (ThT assay) (molar equivalents) [1] turn out when “human anti-thrombin (from UniProt P01008 33-464)” was run?
**A.** The molar equivalents needed for the same inhibition of Aβ40 aggregation (ThT assay) (molar equivalents) was 0.01.

**Q.** What about the effect on Aβ42 aggregation (ThT assay) (molar equivalents) [2] of the same substance?
**A.** Its effect on Aβ42 aggregation (ThT assay) (molar equivalents) is 0.1.
